Data reported in publication PMC4930699 (Cancer research, 2016).

Target: the molecule itself
Assay: cross-linking

B1: Flag-PKM2 K305R (enzyme)
chain: not shown
binding result: binds
